Paper PMC11091212 (2024)

T1: Microfibril-associated glycoprotein 4 (human, UniProt P55083 22-255, intermolecular disulphide bond between C34 of two monomers; N-glycosylated at N87 and N137 (cryo-EM density))
T1 chain: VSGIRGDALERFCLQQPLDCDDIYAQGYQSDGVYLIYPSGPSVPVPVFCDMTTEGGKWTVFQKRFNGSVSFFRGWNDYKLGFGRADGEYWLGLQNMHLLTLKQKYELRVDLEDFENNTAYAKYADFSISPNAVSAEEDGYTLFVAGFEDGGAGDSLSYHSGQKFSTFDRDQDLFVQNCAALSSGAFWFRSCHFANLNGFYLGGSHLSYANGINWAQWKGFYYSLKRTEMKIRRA


Key:
[1] = molecular target: T1, Microfibril-associated glycoprotein 4; experiment: SPR; -Ca2+
MFAP4_(C34S) = MFAP4_(C34S) (human, UniProt P55083 22-255, C34S); experiment: SPR; +Ca2+
[2] = molecular target: T1, Microfibril-associated glycoprotein 4; experiment: SPR; Ca2+

Binder | Kd [1] [nM] | Kd (MFAP4_(C34S)) [nM] | Kd [2] [nM]
latent transforming growth factor beta binding protein-4, long isoform (natural protein) ASPSPSPSQVVEVPGVPSRPASVAVCRCCPGQTSRRSRCIRAFCRVRSCQPKKCAGPQRCLNPVPAVPSPSPSVRKRQVSLNWQPLTLQEARALLKRRRPRGPGGRGLLRRRPPQRAPAGKAPVLCPLICHNGGVCVKPDRCLCPPDFAGKFCQLHSSGARPPAPAVPGLTRSVYTMPLANHRDDEHGVASMVSVHVEHPQEASVVVHQVERVSGPWEEADAEAVARAEAAARAEAAAPYTVLAQSAPREDGYSDASGFGYCFRELRGGECASPLPGLRTQEVCCRGAGLAWGVHDCQLCSERLGNSERVSAPDGPCPTGFERVNGSCEDVDECATGGRCQHGECANTRGGYTCVCPDGFLLDSSRSSCISQHVISEAKGPCFRVLRDGGCSLPILRNITKQICCCSRVGKAWGRGCQLCPPFGSEGFREICPAGPGYHYSASDLRYNTRPLGQEPPRVSLSQPRTLPATSRPSAGFLPTHRLEPRPEPRPDPRPGPELPLPSIPAWTGPEIPESGPSSGMCQRNPQVCGPGRCISRPSGYTCACDSGFRLSPQGTRCIDVDECRRVPPPCAPGRCENSPGSFRCVCGPGFRAGPRAAECLDVDECHRVPPPCDLGRCENTPGSFLCVCPAGYQAAPHGASCQDVDECTQSPGLCGRGACKNLPGSFRCVCPAGFRGSACEEDVDECAQEPPPCGPGRCDNTAGSFHCACPAGFRSRGPGAPCQDVDECARSPPPCTYGRCENTEGSFQCVCPMGFQPNTAGSECEDVDECENHLACPGQECVNSPGSFQCRTCPSGHHLHRGRCTDVDECSSGAPPCGPHGHCTNTEGSFRCSCAPGYRAPSGRPGPCADVNECLEGDFCFPHGECLNTDGSFACTCAPGYRPGPRGASCLDVDECSEEDLCQSGICTNTDGSFECICPPGHRAGPDLASCLDVDECRERGPALCGSQRCENSPGSYRCVRDCDPGYHAGPEGTCDDVDECQEYGPEICGAQRCENTPGSYRCTPACDPGYQPTPGGGCQDVDECRNRSFCGAHAVCQNLPGSFQCLCDQGYEGARDGRHCVDVNECETLQGVCGAALCENVEGSFLCVCPNSPEEFDPMTGRCVPPRTSAGTFPGSQPQAPASPVLPARPPPPPLPRRPSTPRQGPVGSGRRECYFDTAAPDACDNILARNVTWQECCCTVGEGWGSGCRIQQCPGTETAEYQSLCPHGRGYLAPSGDLSLRRDVDECQLFRDQVCKSGVCVNTAPGYSCYCSNGYYYHTQRLECIDNDECADEEPACEGGRCVNTVGSYHCTCEPPLVLDGSQRRCVSNESQSLDDNLGVCWQEVGADLVCSHPRLDRQATYTECCCLYGEAWGMDCALCPAQDSDDFEALCNVLRPPAYSPPRPGGFGLPYEYGPDLGPPYQGLPYGPELYPPPALPYDPYPPPPGPFARREAPYGAPRFDMPDFEDDGGPYGESEAPAPPGPGTRWPYRSRDTRRSFPEPEEPPEGGSYAGSLAEPYEELEAEECGILDGCTNGRCVRVPEGFTCRCFDGYRLDMTRMACVDINECDEAEAASPLCVNARCLNTDGSFRCICRPGFAPTHQPHHCAPARPRA | 20 | 15 | –
fibulin-4 (natural protein) SASPQDSEEPDSYTECTDGYEWDPDSQHCRDVNECLTIPEACKGEMKCINHYGGYLCLPRSAAVINDLHGEGPPPPVPPAQHPNPCPPGYEPDDQDSCVDVDECAQALHDCRPSQDCHNLPGSYQCTCPDGYRKIGPECVDIDECRYRYCQHRCVNLPGSFRCQCEPGFQLGPNNRSCVDVNECDMGAPCEQRCFNSYGTFLCRCHQGYELHRDGFSCSDIDECSYSSYLCQYRCINEPGRFSCHCPQGYQLLATRLCQDIDECESGAHQCSEAQTCVNFHGGYRCVDTNRCVEPYIQVSENRCLCPASNPLCREQPSSIVHRYMTITSERSVPADVFQIQATSVYPGAYNAFQIRAGNSQGDFYIRQINNVSAMLVLARPVTGPREYVLDLEMVTMNSLMSYRASSVLRLTVFVGAYTF | – | 90 | –
fibulin-5 (natural protein) QAQCTNGFDLDRQSGQCLDIDECRTIPEACRGDMMCVNQNGGYLCIPRTNPVYRGPYSNPYSTPYSGPYPAAAPPLSAPNYPTISRPLICRFGYQMDESNQCVDVDECATDSHQCNPTQICINTEGGYTCSCTDGYWLLEGQCLDIDECRYGYCQQLCANVPGSYSCTCNPGFTLNEDGRSCQDVNECATENPCVQTCVNTYGSFICRCDPGYELEEDGVHCSDMDECSFSEFLCQHECVNQPGTYFCSCPPGYILLDDNRSCQDINECEHRNHTCNLQQTCYNLQGGFKCIDPIRCEEPYLRISDNRCMCPAENPGCRDQPFTILYRDMDVVSGRSVPADIFQMQATTRYPGAYYIFQIKSGNEGREFYMRQTGPISATLVMTRPIKGPREIQLDLEMITVNTVINFRGSSVIRLRIYVSQYPF | 3400 | – | –
latent transforming growth factor beta binding protein-4, short isoform (natural protein) RLGERLRVRFTPVVCGLRCVHGPTGSRCTPTCAPRNATSVDSGAPGGAAPGGPGFRAFLCPLICHNGGVCVKPDRCLCPPDFAGKFCQLHSSGARPPAPAVPGLTRSVYTMPLANHRDDEHGVASMVSVHVEHPQEASVVVHQVERVSGPWEEADAEAVARAEAAARAEAAAPYTVLAQSAPREDGYSDASGFGYCFRELRGGECASPLPGLRTQEVCCRGAGLAWGVHDCQLCSERLGNSERVSAPDGPCPTGFERVNGSCEDVDECATGGRCQHGECANTRGGYTCVCPDGFLLDSSRSSCISQHVISEAKGPCFRVLRDGGCSLPILRNITKQICCCSRVGKAWGRGCQLCPPFGSEGFREICPAGPGYHYSASDLRYNTRPLGQEPPRVSLSQPRTLPATSRPSAGFLPTHRLEPRPEPRPDPRPGPELPLPSIPAWTGPEIPESGPSSGMCQRNPQVCGPGRCISRPSGYTCACDSGFRLSPQGTRCIDVDECRRVPPPCAPGRCENSPGSFRCVCGPGFRAGPRAAECLDVDECHRVPPPCDLGRCENTPGSFLCVCPAGYQAAPHGASCQDVDECTQSPGLCGRGACKNLPGSFRCVCPAGFRGSACEEDVDECAQEPPPCGPGRCDNTAGSFHCACPAGFRSRGPGAPCQDVDECARSPPPCTYGRCENTEGSFQCVCPMGFQPNTAGSECEDVDECENHLACPGQECVNSPGSFQCRTCPSGHHLHRGRCTDVDECSSGAPPCGPHGHCTNTEGSFRCSCAPGYRAPSGRPGPCADVNECLEGDFCFPHGECLNTDGSFACTCAPGYRPGPRGASCLDVDECSEEDLCQSGICTNTDGSFECICPPGHRAGPDLASCLDVDECRERGPALCGSQRCENSPGSYRCVRDCDPGYHAGPEGTCDDVDECQEYGPEICGAQRCENTPGSYRCTPACDPGYQPTPGGGCQDVDECRNRSFCGAHAVCQNLPGSFQCLCDQGYEGARDGRHCVDVNECETLQGVCGAALCENVEGSFLCVCPNSPEEFDPMTGRCVPPRTSAGTFPGSQPQAPASPVLPARPPPPPLPRRPSTPRQGPVGSGRRECYFDTAAPDACDNILARNVTWQECCCTVGEGWGSGCRIQQCPGTETAEYQSLCPHGRGYLAPSGDLSLRRDVDECQLFRDQVCKSGVCVNTAPGYSCYCSNGYYYHTQRLECIDNDECADEEPACEGGRCVNTVGSYHCTCEPPLVLDGSQRRCVSNESQSLDDNLGVCWQEVGADLVCSHPRLDRQATYTECCCLYGEAWGMDCALCPAQDSDDFEALCNVLRPPAYSPPRPGGFGLPYEYGPDLGPPYQGLPYGPELYPPPALPYDPYPPPPGPFARREAPYGAPRFDMPDFEDDGGPYGESEAPAPPGPGTRWPYRSRDTRRSFPEPEEPPEGGSYAGSLAEPYEELEAEECGILDGCTNGRCVRVPEGFTCRCFDGYRLDMTRMACVDINECDEAEAASPLCVNARCLNTDGSFRCICRPGFAPTHQPHHCAPARPRA | 22 | 19 | –
N-terminal half of LTBP4L (domain or fragment) ASPSPSPSQVVEVPGVPSRPASVAVCRCCPGQTSRRSRCIRAFCRVRSCQPKKCAGPQRCLNPVPAVPSPSPSVRKRQVSLNWQPLTLQEARALLKRRRPRGPGGRGLLRRRPPQRAPAGKAPVLCPLICHNGGVCVKPDRCLCPPDFAGKFCQLHSSGARPPAPAVPGLTRSVYTMPLANHRDDEHGVASMVSVHVEHPQEASVVVHQVERVSGPWEEADAEAVARAEAAARAEAAAPYTVLAQSAPREDGYSDASGFGYCFRELRGGECASPLPGLRTQEVCCRGAGLAWGVHDCQLCSERLGNSERVSAPDGPCPTGFERVNGSCEDVDECATGGRCQHGECANTRGGYTCVCPDGFLLDSSRSSCISQHVISEAKGPCFRVLRDGGCSLPILRNITKQICCCSRVGKAWGRGCQLCPPFGSEGFREICPAGPGYHYSASDLRYNTRPLGQEPPRVSLSQPRTLPATSRPSAGFLPTHRLEPRPEPRPDPRPGPELPLPSIPAWTGPEIPESGPSSGMCQRNPQVCGPGRCISRPSGYTCACDSGFRLSPQGTRCIDVDECRRVPPPCAPGRCENSPGSFRCVCGPGFRAGPRAAECLDVDECHRVPPPCDLGRCENTPGSFLCVCPAGYQAAPHGASCQDVDECTQSPGLCGRGACKNLPGSFRCVCPAGFRGSACEEDVDECAQEPPPCGPGRCDNTAGSFHCACPAGFRSRGPGAPCQ | – | – | 19
recombinant N-terminal half of fibrillin-1 (domain or fragment) not shown | – | 1.5 | –
fibrillin-1 centre region fragment rF1M (domain or fragment, limits not printed (cited paper); approximate centre region, set at calcium-binding EGF domain boundaries from the domain before TB4 to the one before TB5; Ca2+ bound, HEK-type glycosylation and disulphides likely) not shown | – | 1 | –
recombinant human tropoelastin (natural protein) GGVPGAIPGGVPGGVFYPGAGLGALGGGALGPGGKPLKPVPGGLAGAGLGAGLGAFPAVTFPGALVPGGVADAAAAYKAAKAGAGLGGVPGVGGLGVSAGAVVPQPGAGVKPGKVPGVGLPGVYPGGVLPGARFPGVGVLPGVPTGAGVKPKAPGVGGAFAGIPGVGPFGGPQPGVPLGYPIKAPKLPGGYGLPYTTGKLPYGYGPGGVAGAAGKAGYPTGTGVGPQAAAAAAAKAAAKFGAGAAGVLPGVGGAGVPGVPGAIPGIGGIAGVGTPAAAAAAAAAAKAAKYGAAAGLVPGGPGFGPGVVGVPGAGVPGVGVPGAGIPVVPGAGIPGAAVPGVVSPEAAAKAAAKAAKYGARPGVGVGGIPTYGVGAGGFPGFGVGVGGIPGVAGVPGVGGVPGVGGVPGVGISPEAQAAAAAKAAKYGAAGAGVLGGLVPGAPGAVPGVPGTGGVPGVGTPAAAAAKAAAKAAQFGLVPGVGVAPGVGVAPGVGVAPGVGLAPGVGVAPGVGVAPGVGVAPGIGPGGVAAAAKSAAKVAAKAQLRAAAGLGAGIPGLGVGVGVPGLGVGAGVPGLGVGAGVPGFGAGADEGVRRSLSPELREGDPSSSQHLPSTPSSPRVPGALAAAKAAKYGAAVPGVLGGLGALGGVGIPGGVVGAGPAAAAAAAKAAAKAAQFGLVGAAGLGGLGVGGLGVPGVGGLGGIPPAAAAKAAKYGAAGLGGVLGGAGQFPLGGVAARPGFGLSPIFPGGACLGKACGRKRK | – | 38 | –
